The record followed here is patent publication US20230287095A1 (published 2023).

Common to all, as to assay: ELISA
(In general: An ELISA detects its analyte on a solid surface through an enzyme-linked reagent.)

In assay [1] the target is T1, human pro-EMAPII (human, UniProt Q12904 1-312).
T1 chain: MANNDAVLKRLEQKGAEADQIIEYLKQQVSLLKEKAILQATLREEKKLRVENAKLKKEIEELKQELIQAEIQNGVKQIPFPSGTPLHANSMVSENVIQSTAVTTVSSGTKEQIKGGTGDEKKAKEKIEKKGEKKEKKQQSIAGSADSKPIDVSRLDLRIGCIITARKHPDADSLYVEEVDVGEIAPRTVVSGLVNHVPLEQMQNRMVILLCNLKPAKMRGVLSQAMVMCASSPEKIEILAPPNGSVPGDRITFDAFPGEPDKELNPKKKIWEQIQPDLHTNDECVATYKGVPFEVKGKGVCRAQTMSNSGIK

The target in assay [2] is T1, human pro-EMAPII.
Assay [3] has as its target T1, human pro-EMAPII.
Assay [4] concerns the target T1, human pro-EMAPII.

Where two headings read alike, the source gives them in different places.

B1: Rat parental (antibody, V domains shown)
VH: AVHLVESGGGFVQPTESLKISCAASGFTFSDAAMYWVRQAPGKGLEWVARIRTKPNNYATYYADSVKGRFTISRDDSKSMVYLQMDNLKTEDTAMYYCTSWSYDFDYWGQGVMVTVSS
VL: DIVMTQGALPNPVPSGESASITCQSSKSLLHSSGKTYLNWYLQRPGQSPHLLIYWMSTRASGVSDRLSGSGSGTDFTLKISSVEAEDVGVYYCQQFLEYPLTFGSGTKLEIK
One may read the EC50 as the concentration at which the effect is half-maximal. Read a low EC50 as higher potency in that assay. For the molecule B1, the EC50 with human pro-EMAPII [1] was determined as 3.6 µg/mL; in the assay with human pro-EMAPII [2], 3.39 µg/mL; with human pro-EMAPII [3], 3.6 µg/mL; with human pro-EMAPII [4] it was 3.39 µg/mL.

B2: Chimeric Parental (antibody, V domains shown)
VH: B1 VH
VL: B1 VL
For B2, the 50% effective concentration (EC50) with human pro-EMAPII [1] came to 0.361 µg/mL; with human pro-EMAPII [2] it was 0.329 µg/mL; with human pro-EMAPII [3] it was 0.361 µg/mL; with human pro-EMAPII [4] it was 0.329 µg/mL.
